Source: PMC2886958 (The Journal of General Virology, 2008)

Target: ACE-2–GFP, secreted form of angiotensin converting enzyme-2 fused to green fluorescent protein (UniProt Q9BYF1)
Test: SPR; format not told in the text (Supplementary Fig. S2)

ACE-2–GFP, secreted form of angiotensin converting enzyme-2 fused to green fluorescent protein, sequence (Q9BYF1 18-740): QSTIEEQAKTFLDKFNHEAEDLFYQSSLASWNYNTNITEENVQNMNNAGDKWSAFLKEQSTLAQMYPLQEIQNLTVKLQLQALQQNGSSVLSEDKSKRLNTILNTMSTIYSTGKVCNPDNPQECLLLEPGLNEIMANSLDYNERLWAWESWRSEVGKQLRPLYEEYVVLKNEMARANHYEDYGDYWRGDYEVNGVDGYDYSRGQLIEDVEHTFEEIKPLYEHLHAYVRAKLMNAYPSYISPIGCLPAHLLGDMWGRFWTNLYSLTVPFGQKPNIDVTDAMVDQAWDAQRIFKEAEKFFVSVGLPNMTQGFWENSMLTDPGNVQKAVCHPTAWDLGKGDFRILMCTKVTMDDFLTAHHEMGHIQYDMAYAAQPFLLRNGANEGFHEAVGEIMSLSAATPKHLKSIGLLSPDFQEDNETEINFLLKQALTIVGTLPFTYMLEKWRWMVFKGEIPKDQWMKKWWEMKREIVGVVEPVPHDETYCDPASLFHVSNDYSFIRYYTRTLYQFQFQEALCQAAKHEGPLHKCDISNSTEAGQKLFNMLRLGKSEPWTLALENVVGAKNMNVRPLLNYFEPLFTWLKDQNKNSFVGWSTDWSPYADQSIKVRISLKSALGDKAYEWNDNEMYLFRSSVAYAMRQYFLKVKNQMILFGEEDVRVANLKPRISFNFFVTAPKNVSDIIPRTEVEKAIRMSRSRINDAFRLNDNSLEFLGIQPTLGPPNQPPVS

B1: SARS-CoV S1 (residues 19–713), Fc-tagged fusion protein (Fc fusion)
chain: not shown
B1 showed a Kd of 87.1 nM.
